Reference: patent publication US7662919

Target: Flt1/VEGFR1 (human) (UniProt P17948)
Assay: cell-based or functional assay

Sequence of UniProt P17948 (P17948 27-1338): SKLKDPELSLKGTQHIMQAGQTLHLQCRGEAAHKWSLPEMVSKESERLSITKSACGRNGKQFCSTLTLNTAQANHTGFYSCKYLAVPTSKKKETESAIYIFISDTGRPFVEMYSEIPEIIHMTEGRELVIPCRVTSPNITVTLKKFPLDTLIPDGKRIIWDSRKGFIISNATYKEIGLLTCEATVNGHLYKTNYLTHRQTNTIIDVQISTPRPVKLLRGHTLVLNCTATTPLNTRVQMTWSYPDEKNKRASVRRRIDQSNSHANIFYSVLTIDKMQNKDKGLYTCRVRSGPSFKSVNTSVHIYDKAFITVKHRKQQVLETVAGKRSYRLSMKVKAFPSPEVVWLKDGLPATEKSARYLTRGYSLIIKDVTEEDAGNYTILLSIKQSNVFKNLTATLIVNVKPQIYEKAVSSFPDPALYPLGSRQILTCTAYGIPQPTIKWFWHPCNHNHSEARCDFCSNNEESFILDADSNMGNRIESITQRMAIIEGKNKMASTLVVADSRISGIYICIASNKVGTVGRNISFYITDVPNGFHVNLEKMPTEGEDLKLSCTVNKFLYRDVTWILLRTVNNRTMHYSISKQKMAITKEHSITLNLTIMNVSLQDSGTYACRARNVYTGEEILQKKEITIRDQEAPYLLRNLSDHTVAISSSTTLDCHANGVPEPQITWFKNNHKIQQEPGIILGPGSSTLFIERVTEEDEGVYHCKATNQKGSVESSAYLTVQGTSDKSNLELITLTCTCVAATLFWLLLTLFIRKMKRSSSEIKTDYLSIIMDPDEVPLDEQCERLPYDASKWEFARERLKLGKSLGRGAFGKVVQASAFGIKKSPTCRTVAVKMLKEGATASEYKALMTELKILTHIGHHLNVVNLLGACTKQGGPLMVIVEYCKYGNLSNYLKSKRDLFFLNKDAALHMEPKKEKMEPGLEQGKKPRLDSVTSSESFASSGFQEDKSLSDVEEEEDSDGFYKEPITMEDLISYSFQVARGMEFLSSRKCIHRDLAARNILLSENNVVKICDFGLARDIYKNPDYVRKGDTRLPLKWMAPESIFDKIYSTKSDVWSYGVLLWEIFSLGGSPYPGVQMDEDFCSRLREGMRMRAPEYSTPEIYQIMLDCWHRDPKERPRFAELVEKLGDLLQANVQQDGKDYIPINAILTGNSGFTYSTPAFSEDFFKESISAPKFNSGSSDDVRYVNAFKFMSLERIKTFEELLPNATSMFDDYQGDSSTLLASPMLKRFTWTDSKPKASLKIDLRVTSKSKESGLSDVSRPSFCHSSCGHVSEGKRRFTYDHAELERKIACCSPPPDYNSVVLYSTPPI

Substance: PlGF (ligand)
- HUVEC buds containing multiple filopodia: 250%
